Assay results: patent US20210169929A1

Molecular target: CD19 CAR (4G7-CAR) encoded by Construct 1, expressed on transfected HEK293 cells
Assay: flow cytometry, HEK293 cells transfected with Construct 1, biotinylated CD19 then streptavidin-PE; unstained 17.4, streptavidin-PE only 18.5

Chain of CD19 CAR (4G7-CAR) encoded by Construct 1, expressed on transfected HEK293 cells (chain, as listed by the source limits assumed): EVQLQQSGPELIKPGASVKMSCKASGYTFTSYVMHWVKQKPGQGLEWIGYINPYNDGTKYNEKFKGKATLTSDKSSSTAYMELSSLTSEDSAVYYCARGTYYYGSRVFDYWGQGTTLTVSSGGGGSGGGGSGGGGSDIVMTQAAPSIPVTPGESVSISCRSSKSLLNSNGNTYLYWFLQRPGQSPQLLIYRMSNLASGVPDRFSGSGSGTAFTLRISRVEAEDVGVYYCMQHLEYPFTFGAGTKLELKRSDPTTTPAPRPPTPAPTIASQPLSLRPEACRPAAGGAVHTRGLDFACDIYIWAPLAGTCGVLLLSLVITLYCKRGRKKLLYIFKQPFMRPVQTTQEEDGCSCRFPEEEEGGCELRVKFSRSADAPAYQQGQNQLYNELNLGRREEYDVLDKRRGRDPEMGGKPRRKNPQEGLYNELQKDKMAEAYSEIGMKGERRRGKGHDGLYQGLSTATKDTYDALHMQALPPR

Q: For “biotinylated CD19 (Acro CD9-H8259, Acro Biosystems) (from UniProt P15391 20-291)”, which PE (CD19) flow cytometry value is on record?
A: 33.3
